Results: publication PMC6699081, “Development and application of a transcriptional sensor for detection of heterologous acrylic acid production in E. coli” (Microbial Cell Factories, 2019)

Legend:
C=CC(N)=O [1] = tested on: T1, C=CC(N)=O; assay: purified protein; format: biochemical, Bacillus sp. (in: firmicutes); settings: 20 mM potassium phosphate pH 7.2, 150 mM NaCl, 2 mM DTT, 37 °C, 15 nM enzyme, 20 min
T1 construct: C-terminal 6xHis tag, expressed in E. coli BL21(DE3), His-GraviTrap purified; catalytic triad E59, K134, C166

C=CC(N)=O [2] = assay: purified protein; settings: 20 mM potassium phosphate pH 7.2, 150 mM NaCl, 2 mM DTT, 37 °C, 15 nM enzyme, 20 min

Substance	Km (C=CC(N)=O [1])	Vmax (C=CC(N)=O [1])	kcat (C=CC(N)=O [1])	kcat/Km (C=CC(N)=O [1])	Km (C=CC(N)=O [2])	Vmax (C=CC(N)=O [2])	kcat (C=CC(N)=O [2])	kcat/Km (C=CC(N)=O [2])
RAPc8 amidase (Bacillus sp. (in: firmicutes))	7.3 ± 0.1 mM	106 µM/min	118 ± 6.75 s⁻¹	16300 ± 1060 M⁻¹ s⁻¹	–	–	–	–
RAPc8 amidase (Bacillus sp. (in: firmicutes); A77T)	–	–	–	–	4.5 ± 0.2 mM	66.7 µM/min	74.1 ± 2.32 s⁻¹	16600 ± 357 M⁻¹ s⁻¹
RAPc8 amidase (Bacillus sp. (in: firmicutes); A77T/D294N/K342E/M203V/M45L)	–	–	–	–	7.4 ± 1.3 mM	176 µM/min	196 ± 17.9 s⁻¹	26800 ± 2390 M⁻¹ s⁻¹
RAPc8 amidase (Bacillus sp. (in: firmicutes); A77T/M203V)	–	–	–	–	4.6 ± 0.4 mM	64.7 µM/min	71.9 ± 5.14 s⁻¹	15600 ± 598 M⁻¹ s⁻¹
RAPc8 amidase (Bacillus sp. (in: firmicutes); M203V)	–	–	–	–	7.2 ± 1.1 mM	147 µM/min	163 ± 18.6 s⁻¹	22900 ± 1170 M⁻¹ s⁻¹
